Assay results: US20220025373, “COMPOSITIONS AND METHODS RELATED TO NUCLEIC ACID ANTICOAGULANTS” (North Carolina State University, published 2022)

How the values were obtained:
[1] = target: T1, Factor Xa (UniProt P00742;P00742 P00742:41-179,P00742:235-488); experiment: EMSA; 5 pmol RNA + 25 pmol protein, 37 C 1 h; conditions: 2-helix RNA origami with tetraloops and 180 degree kissing loop, no aptamer
Description: (§1) Specificity tests of the Th-RNA origami with two proteins (Factor IXa and Xa) involved in the coagulation cascade and one common protein (bovine serum albumin, BSA) were performed. To test specificity, the RNA origami was incubated with protein at 37° C. for one hour and characterized by native acrylamide gel electrophoresis. The non-aptamer presenting on RNA origami (2HF-RNA-NNNN) was not able to bind to all four proteins (FIG. 25). All seven designs of RNA origami with RNA thrombin aptamers (2HF-RNA-12NN, 1N2N, 2NN1, Fss12, 2HF-2211, 3HF-2NN1, and 4HF-2NN1) show the specificity binding with thrombin as results shown in FIGS. 26-28 and FIGS. 42-45).
(§2) For specificity tests, heat-annealed RNA origami or DNA weave tile (5 pmol) was dissolved in 1× annealing buffer and incubated with protein (25 pmol) at 37° C. for 1 hr. The samples were tested by 6% native acrylamide gel electrophoresis in 1×TBE as running buffer at 150 V for 3 hr. The gels were stained with Ethidium bromide for nucleic acid staining and visualized under a UV lamp. Then, the gels were further stained with Coomassie blue for protein staining and imaged with the ProteinSimple instrument.

[2] = target: T2, Factor IXa (UniProt P00740;P00740 P00740:47-191,P00740:227-461); experiment: EMSA; 5 pmol RNA + 25 pmol protein, 37 C 1 h; conditions: 2-helix RNA origami with tetraloops and 180 degree kissing loop, no aptamer
T2 sequence (P00740 47-191, chain 1 of 2): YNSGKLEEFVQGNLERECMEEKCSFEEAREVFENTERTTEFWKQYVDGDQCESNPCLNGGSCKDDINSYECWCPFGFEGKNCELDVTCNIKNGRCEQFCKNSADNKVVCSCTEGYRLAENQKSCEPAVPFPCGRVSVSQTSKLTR
T2 sequence (P00740 227-461, chain 2 of 2): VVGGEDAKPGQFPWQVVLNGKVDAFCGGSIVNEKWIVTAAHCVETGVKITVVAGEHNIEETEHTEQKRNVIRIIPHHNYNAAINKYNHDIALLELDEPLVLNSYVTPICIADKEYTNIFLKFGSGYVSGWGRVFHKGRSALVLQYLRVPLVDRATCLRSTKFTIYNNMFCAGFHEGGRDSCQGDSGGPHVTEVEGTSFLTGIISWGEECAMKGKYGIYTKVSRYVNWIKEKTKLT
Description: as §1, §2

[3] = target: T3, Bovine serum albumin (BSA) (Bos taurus, UniProt P02769 P02769:25-607); experiment: EMSA; 5 pmol RNA + 25 pmol protein, 37 C 1 h; conditions: 2-helix RNA origami with tetraloops and 180 degree kissing loop, no aptamer
T3 sequence (P02769 25-607, one chain of several): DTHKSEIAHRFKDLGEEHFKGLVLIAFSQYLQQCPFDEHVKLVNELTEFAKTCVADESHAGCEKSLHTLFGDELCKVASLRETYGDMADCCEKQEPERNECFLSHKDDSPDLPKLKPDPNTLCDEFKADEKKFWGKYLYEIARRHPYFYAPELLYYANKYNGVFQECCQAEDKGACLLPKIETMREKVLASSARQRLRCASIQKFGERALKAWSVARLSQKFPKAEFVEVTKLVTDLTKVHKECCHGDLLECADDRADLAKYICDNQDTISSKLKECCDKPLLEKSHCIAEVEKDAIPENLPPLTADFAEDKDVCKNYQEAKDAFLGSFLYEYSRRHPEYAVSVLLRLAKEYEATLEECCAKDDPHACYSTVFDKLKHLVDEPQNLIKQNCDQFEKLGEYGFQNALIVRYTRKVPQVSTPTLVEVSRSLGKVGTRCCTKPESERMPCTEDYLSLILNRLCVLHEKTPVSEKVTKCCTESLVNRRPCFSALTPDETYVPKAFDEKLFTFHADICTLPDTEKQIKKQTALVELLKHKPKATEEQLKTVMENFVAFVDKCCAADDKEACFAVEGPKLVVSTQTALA
Description: as §1, §2

[4] = target: T4, Thrombin (UniProt P00734;P00734 P00734:328-363,P00734:364-622); experiment: EMSA; 5 pmol RNA + 25 pmol protein, 1x annealing buffer, 37 C 1 h, 6% native PAGE
[5] = target: T1, Factor Xa; experiment: EMSA; 37 C 1 h
Description: as §1, §2

[6] = target: T2, Factor IXa; experiment: EMSA; 37 C 1 h
Description: as §1, §2

[7] = target: T3, Bovine serum albumin (BSA); experiment: EMSA; 37 C 1 h
Description: as §1, §2

[8] = target: T4, Thrombin; experiment: EMSA; 5 pmol RNA + 25 pmol protein, 37 C 1 h
[9] = 2-helix RNA origami with exosite 1 aptamer (RNAR9D-14T) and exosite 2 aptamer (Toggle-25t)
[10] = 2-helix RNA origami with exosite 1 and exosite 2 aptamers
[11] = two aptamers (exosite 2 and exosite 1) joined by 31 nt single-stranded linker

T1 sequence (P00742 41-179, chain 1 of 2): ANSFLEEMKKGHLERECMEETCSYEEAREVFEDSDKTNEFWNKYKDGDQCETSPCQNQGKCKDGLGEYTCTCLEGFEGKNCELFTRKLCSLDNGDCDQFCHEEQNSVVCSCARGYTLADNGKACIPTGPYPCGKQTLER
T1 sequence (P00742 235-488, chain 2 of 2): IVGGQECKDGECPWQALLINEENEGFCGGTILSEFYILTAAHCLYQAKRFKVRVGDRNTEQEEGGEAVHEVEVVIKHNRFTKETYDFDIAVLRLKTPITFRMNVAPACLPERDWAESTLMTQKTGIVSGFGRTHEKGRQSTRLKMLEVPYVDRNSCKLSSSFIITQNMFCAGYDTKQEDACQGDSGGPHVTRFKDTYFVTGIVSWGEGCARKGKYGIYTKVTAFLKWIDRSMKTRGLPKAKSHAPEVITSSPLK

Row | Binder | binding result [8] | binding result [5, 10] | binding result [6, 10] | binding result [7, 10] | other results
1 | 2HF-RNA-NNNN (ssRNA, 2'-F at all C and U) RNA: GGGAGAUCGAGCGACUUCCGACUUCGGUCGGGAGUCGGGCUAGUCAUCUUCGGAUGAUUAGCCGCUGGUGAAGCCUCCACGCCAGCCUCGGUCUCCCGCAGUAGGAUCGGACUGAAGGAGGCACGGUCCCAGCCGAAGUGUCUUGCUUCGGCAAGGCACUUUGGCUGCUAGACUGGCUGGCUUCGGCCAGCUAGUUUAGGAUUCUAUUGC | – | – | – | – | binding result [1]: no binding; binding result [2]: no binding; binding result [3]: no binding; binding result [4]: no binding
2 | 2HF-RNA-12NN (ssRNA, 2'-F at all C and U) RNA: GGGAGAUCGAGCGACUUCCGACUUCGGUCGGGAGUCGGGCUAGUCAUCGGGAACAAAGCUGAAGUACUUACCCGAUGAUUAGCCGCUGGUGAAGCCUCCACGCCAGCCUCGGUCUCCCGCAGUAGGAUCGGACUGAAGGAGGCACGGUCCCAGCCGAAGUGUCUGGCGGUCGAUCACACAGUUCAAACGUAAUAAGCCAAUGUACGAGGCAGACGACUCGCCAGGCACUUUGGCUGCUAGACUGGCUGGCUUCGGCCAGCUAGUUUAGGAUUCUAUUGC | binds | – | – | – | binding result [5, 9]: no binding; binding result [6, 9]: no binding; binding result [7, 9]: no binding
3 | 2HF-RNA-1N2N (ssRNA, 2'-F at all C and U) RNA: GGGAGAUCGAGCGACUUCCGACGGGAACAAAGCUGAAGUACUUACCCGUCGGGAGUCGGGCUAGUCAUCUUCGGAUGAUUAGCCGCUGGUGAAGCCUCCACGCCAGCCUCGGUCUCCCGCAGUAGGAUCGGACUGAAGGAGGCACGGUCCCAGCCGAAGUGUCUGGCGGUCGAUCACACAGUUCAAACGUAAUAAGCCAAUGUACGAGGCAGACGACUCGCCAGGCACUUUGGCUGCUAGACUGGCUGGCUUCGGCCAGCUAGUUUAGGAUUCUAUUGC | binds | no binding | no binding | no binding | –
4 | 2HF-RNA-2NN1 (ssRNA, 2'-F at all C and U) RNA: GGGAGAUCGAGCGACUUCCGACUUCGGUCGGGAGUCGGGCUAGUCAUCUUCGGAUGAUUAGCCGCUGGUGAAGCCUCCACGCCAGCCUCGGUCUCCCGCAGUAGGAUCGGACUGAAGGAGGCACGGUCCCAGCCGAAGUGUCUUGCGGGAACAAAGCUGAAGUACUUACCCGCAAGGCACUUUGGCUGCUAGACUGGCUGGCGGCGGUCGAUCACACAGUUCAAACGUAAUAAGCCAAUGUACGAGGCAGACGACUCGCCGCCAGCUAGUUUAGGAUUCUAUUGC | binds | no binding | no binding | no binding | –
5 | Fss12 (ssRNA, 2'-F at all C and U) RNA: GGGAACAAAGCUGAAGUACUUACCCACCUUACCACUCCACCUCACUCACCUAUUACGGCGGUCGAUCACACAGUUCAAACGUAAUAAGCCAAUGUACGAGGCAGACGACUCGCC | binds | – | – | – | binding result [5, 11]: no binding; binding result [6, 11]: no binding; binding result [7, 11]: no binding
